Laboratory results as given in publication PMC13544220, “Glycemic and bodyweight effects of GIPR coding variation reflect differences in surface expression and intrinsic functional impairment” (Science Advances, 2026).

What was measured:
Format in all cases: cell-based, human
[1] = tested on: wild-type and variant SNAP-GIPR; test: Surface SNAP-GIPR expression (SNAP-tag labelling) in INS-1 cells; conditions: Fig 4G; Mean
How it was run: (§1)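 Read-out: whole-cell fluorescence of surface-only SNAP label (Alexa Fluor 647, 500 nM, 10 min, RT), wide-field 20X, several FOVs per well. Flat-field corrected, phase-contrast masked, nontransfected-well signal subtracted; normalized to experiment mean or wild-type.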

[2] = tested on: wild-type and variant SNAP-GIPR; test: cADDis cAMP imaging in AD293 cells, ensemble, expression-matched and per decile; conditions: Fig S3F, cADDis, mean;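 further: Ensemble cells as % of IBMX/FSK response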
How it was run: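 Surface GIPR and cAMP are measured in individual AD293 cells coexpressing SNAP-tagged receptor and the green cADDis biosensor, imaged live at 37°C. Responses are reported ensemble, expression-matched against wild-type deciles with extremes trimmed, or within each variant's own surface deciles.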

[3] = tested on: wild-type and variant SNAP-GIPR; test: Single-concentration GIP cAMP response by HTRF in INS-1 cells; conditions: Fig S3E, mean
Method: (§2) All variants were tested in parallel on each occasion to control for transfection efficiency differences between experiments.

[4] = tested on: wild-type and variant SNAP-GIPR; test: Single-concentration GIP cAMP response by HTRF in AD293 cells; conditions: Fig S3F, HTRF, mean;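 further: ratio to experiment-wide average response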
Method: as §2

[5] = tested on: wild-type and variant SNAP-GIPR; test: Constitutive and agonist-mediated internalization, reversible SNAP-tag labelling, AD293 cells; design: key to Internalisation, Vehicle / Internalisation, +GIP / Internalisation, GIP-only: % internalization: residual fluorescence after Mesna vs pre-Mesna; Surface expression: unit not given here; conditions: Mean; for +GIP internalisation (100 nM) / GIP-specific internalisation (100 nM) / Constitutive internalisation (100 nM) / Surface expression: Fig 4E; for +GIP internalisation (100 nM) / GIP-specific internalisation (100 nM): GIP 100 nM; for Internalisation, +GIP / Internalisation, GIP-only / Internalisation, Vehicle: Fig S4C, AD293
How it was run: (§3)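 Percentage internalization is read as the fraction of specific SNAP fluorescence that survives Mesna stripping, compared with the image taken before Mesna. Wells are imaged in TNE buffer at pH 8.6 and again after 10 min.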

[6] = tested on: wild-type and variant SNAP-GIPR; test: Constitutive and agonist-mediated internalization, reversible SNAP-tag labelling, INS-1 cells; design: key to Internalisation, GIP-only / Internalisation, Vehicle / Internalisation, +GIP: % internalization: residual fluorescence after Mesna vs pre-Mesna; conditions: Mean; for +GIP internalisation (100 nM) / GIP-specific internalisation (100 nM) / Constitutive internalisation (100 nM): Fig 4G; for +GIP internalisation (100 nM) / GIP-specific internalisation (100 nM): GIP 100 nM; for Internalisation, +GIP / Internalisation, GIP-only / Internalisation, Vehicle: Fig S4C, INS-1
How it was run: as §3

[7] = tested on: wild-type and variant SNAP-GIPR; test: Surface SNAP-GIPR expression (SNAP-tag labelling) in AD293 cells; conditions: for AD293 Surface: Fig S3E, mean; for Surface SNAP-GIPR expression: sheet Fig 1C;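 on all read-outs here: scaled to the experimental average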
How it was run: as §1

[8] = column repeated, paired with cAMP 100 nM

B1: S447T (protein, UniProt P48546 22-466, looked up, variant S447T)
Gastric inhibitory …: RAETGSKGQTAGELYQRWERYRRECQETLAAAEPPSGLACNGSFDMYVCWDYAAPNATARASCPWYLPWHHHVAAGFVLRQCGSDGQWGLWRDHTQCENPEKNEAFLDQRLILERLQVMYTVGYSLSLATLLLALLILSLFRRLHCTRNYIHINLFTSFMLRAAAILSRDRLLPRPGPYLGDQALALWNQALAACRTAQIVTQYCVGANYTWLLVEGVYLHSLLVLVGGSEEGHFRYYLLLGWGAPALFVIPWVIVRYLYENTQCWERNEVKAIWWIIRTPILMTILINFLIFIRILGILLSKLRTRQMRCRDYRLRLARSTLTLVPLLGVHEVVFAPVTEEQARGALRFAKLGFEIFLSSFQGFLVSVLYCFINKEVQSEIRRGWHHCRLRRSLGEEQRQLPERAFRALPSGSGPGEVPTSRGLTSGTLPGPGNEASRELESYC
Surface expression [1]: 1.143 | AD293 100 pM cADDis [2]: 33.2503 | AD293 100 nM cADDis [2]: 38.05 | INS-1 cAMP (100 nM) [3]: 1.225 | AD293 100 pM HTRF [4]: 1.563 | AD293 100 nM HTRF [4]: 1.418 | +GIP internalisation (100 nM) [5]: 0.6943 | GIP-specific internalisation (100 nM) [5]: 0.1731 | Constitutive internalisation (100 nM) [5]: 0.5211 | Surface expression [5]: 1.271 | Internalisation, +GIP [5]: 54.6308 | Internalisation, GIP-only [5]: 13.6704 | Internalisation, Vehicle [5]: 40.9604 | +GIP internalisation (100 nM) [6]: 0.5789 | GIP-specific internalisation (100 nM) [6]: 0.1373 | Constitutive internalisation (100 nM) [6]: 0.4416 | Internalisation, +GIP [6]: 49.3117 | Internalisation, GIP-only [6]: 11.6867 | Internalisation, Vehicle [6]: 37.625 | AD293 Surface [7, 8]: 1.404 | AD293 Surface ([7]; paired with cAMP 100 pM): 1.404 | Surface SNAP-GIPR expression ([7]; replicate 1): 1.604 | Surface SNAP-GIPR expression ([7]; replicate 2): 1.279 | Surface SNAP-GIPR expression ([7]; replicate 3): 1.391 | Surface SNAP-GIPR expression ([7]; replicate 4): 2.61 | Surface SNAP-GIPR expression ([7]; replicate 5): 1.403 | Surface SNAP-GIPR expression ([7]; replicate 6): 1.423 | Surface SNAP-GIPR expression ([7]; replicate 7): 1.077 | Surface SNAP-GIPR expression ([7]; replicate 8): 1.469 | Surface SNAP-GIPR expression ([7]; replicate 9): 1.63 | Surface SNAP-GIPR expression ([7]; replicate 10): 1.374 | Surface SNAP-GIPR expression ([7]; replicate 11): 1.745 | Surface SNAP-GIPR expression ([7]; replicate 12): 1.689 | Surface SNAP-GIPR expression ([7]; replicate 13): 1.462 | Surface SNAP-GIPR expression ([7]; replicate 14): 1.46 | Surface SNAP-GIPR expression ([7]; replicate 15): 1.674 | Surface SNAP-GIPR expression ([7]; replicate 16): 1.628 | Surface SNAP-GIPR expression ([7]; replicate 17): 1.349 | Surface SNAP-GIPR expression ([7]; replicate 18): 1.205 | Surface SNAP-GIPR expression ([7]; replicate 19): 1.299 | Surface SNAP-GIPR expression ([7]; replicate 20): 1.361 | Surface SNAP-GIPR expression ([7]; replicate 21): 1.342 | Surface SNAP-GIPR expression ([7]; replicate 22): 1.393 | Surface SNAP-GIPR expression ([7]; replicate 23): 1.314 | Surface SNAP-GIPR expression ([7]; replicate 24): 1.27 | Surface SNAP-GIPR expression ([7]; replicate 25): 1.747 | Surface SNAP-GIPR expression ([7]; replicate 26): 1.476 | Surface SNAP-GIPR expression ([7]; replicate 27): 1.434 | Surface SNAP-GIPR expression ([7]; replicate 28): 1.161 | Surface SNAP-GIPR expression ([7]; replicate 29): 0.9451 | Surface SNAP-GIPR expression ([7]; replicate 30): 1.119 | Surface SNAP-GIPR expression ([7]; replicate 31): 1.316 | Surface SNAP-GIPR expression ([7]; replicate 32): 1.418 | Surface SNAP-GIPR expression ([7]; replicate 33): 1.322 | Surface SNAP-GIPR expression ([7]; replicate 34): 1.362 | Surface SNAP-GIPR expression ([7]; replicate 35): 1.415 | Surface SNAP-GIPR expression ([7]; replicate 36): 1.515 | Surface SNAP-GIPR expression ([7]; replicate 37): 1.174 | Surface SNAP-GIPR expression ([7]; replicate 38): 1.292 | Surface SNAP-GIPR expression ([7]; replicate 39): 1.035 | Surface SNAP-GIPR expression ([7]; replicate 40): 1.181 | Surface SNAP-GIPR expression ([7]; replicate 41): 1.207

B2: E252D (protein)
chain: RAETGSKGQTAGELYQRWERYRRECQETLAAAEPPSGLACNGSFDMYVCWDYAAPNATARASCPWYLPWHHHVAAGFVLRQCGSDGQWGLWRDHTQCENPEKNEAFLDQRLILERLQVMYTVGYSLSLATLLLALLILSLFRRLHCTRNYIHINLFTSFMLRAAAILSRDRLLPRPGPYLGDQALALWNQALAACRTAQIVTQYCVGANYTWLLVEGVYLHSLLVLVGGSDEGHFRYYLLLGWGAPALFVIPWVIVRYLYENTQCWERNEVKAIWWIIRTPILMTILINFLIFIRILGILLSKLRTRQMRCRDYRLRLARSTLTLVPLLGVHEVVFAPVTEEQARGALRFAKLGFEIFLSSFQGFLVSVLYCFINKEVQSEIRRGWHHCRLRRSLGEEQRQLPERAFRALPSGSGPGEVPTSRGLSSGTLPGPGNEASRELESYC
Surface expression [1]: 1.379 | AD293 100 pM cADDis [2]: 35.9603 | AD293 100 nM cADDis [2]: 38.59 | INS-1 cAMP (100 nM) [3]: 1.435 | AD293 100 pM HTRF [4]: 2.258 | AD293 100 nM HTRF [4]: 1.787 | +GIP internalisation (100 nM) [5]: 0.7833 | GIP-specific internalisation (100 nM) [5]: 0.2173 | Constitutive internalisation (100 nM) [5]: 0.566 | Surface expression [5]: 1.422 | Internalisation, +GIP [5]: 55.2271 | Internalisation, GIP-only [5]: 15.2317 | Internalisation, Vehicle [5]: 39.9954 | +GIP internalisation (100 nM) [6]: 0.6632 | GIP-specific internalisation (100 nM) [6]: 0.1797 | Constitutive internalisation (100 nM) [6]: 0.4835 | Internalisation, +GIP [6]: 49.4067 | Internalisation, GIP-only [6]: 13.4967 | Internalisation, Vehicle [6]: 35.91 | AD293 Surface [7, 8]: 1.407 | AD293 Surface ([7]; paired with cAMP 100 pM): 1.407 | Surface SNAP-GIPR expression ([7]; replicate 1): 1.329 | Surface SNAP-GIPR expression ([7]; replicate 2): 1.136 | Surface SNAP-GIPR expression ([7]; replicate 3): 2.323 | Surface SNAP-GIPR expression ([7]; replicate 4): 1.309 | Surface SNAP-GIPR expression ([7]; replicate 5): 1.389 | Surface SNAP-GIPR expression ([7]; replicate 6): 1.509 | Surface SNAP-GIPR expression ([7]; replicate 7): 1.009 | Surface SNAP-GIPR expression ([7]; replicate 8): 1.58 | Surface SNAP-GIPR expression ([7]; replicate 9): 1.305 | Surface SNAP-GIPR expression ([7]; replicate 10): 1.452 | Surface SNAP-GIPR expression ([7]; replicate 11): 1.297 | Surface SNAP-GIPR expression ([7]; replicate 12): 1.294 | Surface SNAP-GIPR expression ([7]; replicate 13): 1.499 | Surface SNAP-GIPR expression ([7]; replicate 14): 1.714 | Surface SNAP-GIPR expression ([7]; replicate 15): 1.276 | Surface SNAP-GIPR expression ([7]; replicate 16): 1.31 | Surface SNAP-GIPR expression ([7]; replicate 17): 1.201 | Surface SNAP-GIPR expression ([7]; replicate 18): 1.327 | Surface SNAP-GIPR expression ([7]; replicate 19): 1.07 | Surface SNAP-GIPR expression ([7]; replicate 20): 1.361 | Surface SNAP-GIPR expression ([7]; replicate 21): 1.327 | Surface SNAP-GIPR expression ([7]; replicate 22): 1.295 | Surface SNAP-GIPR expression ([7]; replicate 23): 1.346 | Surface SNAP-GIPR expression ([7]; replicate 24): 1.279 | Surface SNAP-GIPR expression ([7]; replicate 25): 1.414 | Surface SNAP-GIPR expression ([7]; replicate 26): 1.49 | Surface SNAP-GIPR expression ([7]; replicate 27): 1.461 | Surface SNAP-GIPR expression ([7]; replicate 28): 1.564 | Surface SNAP-GIPR expression ([7]; replicate 29): 1.396 | Surface SNAP-GIPR expression ([7]; replicate 30): 1.388 | Surface SNAP-GIPR expression ([7]; replicate 31): 2.074 | Surface SNAP-GIPR expression ([7]; replicate 32): 1.301 | Surface SNAP-GIPR expression ([7]; replicate 33): 1.332 | Surface SNAP-GIPR expression ([7]; replicate 34): 1.623 | Surface SNAP-GIPR expression ([7]; replicate 35): 1.576 | Surface SNAP-GIPR expression ([7]; replicate 36): 1.688 | Surface SNAP-GIPR expression ([7]; replicate 37): 1.181 | Surface SNAP-GIPR expression ([7]; replicate 38): 1.286 | Surface SNAP-GIPR expression ([7]; replicate 39): 1.291 | Surface SNAP-GIPR expression ([7]; replicate 40): 1.349 | Surface SNAP-GIPR expression ([7]; replicate 41): 1.333
